According to US20200147120A1 (NATIONAL UNIVERSITY CORPORATION CHIBA UNIVERSITY, published 2020):

Legend:
BRG1 = BRG1 (human, UniProt P51532 1-1647); experiment: binding test of DPF2 truncation mutants; format not described
Brm = target: T1, Brm (human, UniProt P51531 1-1590, limits assumed); experiment: as above
T1 construct: also called hBRM
T1 sequence (P51531 whole entry): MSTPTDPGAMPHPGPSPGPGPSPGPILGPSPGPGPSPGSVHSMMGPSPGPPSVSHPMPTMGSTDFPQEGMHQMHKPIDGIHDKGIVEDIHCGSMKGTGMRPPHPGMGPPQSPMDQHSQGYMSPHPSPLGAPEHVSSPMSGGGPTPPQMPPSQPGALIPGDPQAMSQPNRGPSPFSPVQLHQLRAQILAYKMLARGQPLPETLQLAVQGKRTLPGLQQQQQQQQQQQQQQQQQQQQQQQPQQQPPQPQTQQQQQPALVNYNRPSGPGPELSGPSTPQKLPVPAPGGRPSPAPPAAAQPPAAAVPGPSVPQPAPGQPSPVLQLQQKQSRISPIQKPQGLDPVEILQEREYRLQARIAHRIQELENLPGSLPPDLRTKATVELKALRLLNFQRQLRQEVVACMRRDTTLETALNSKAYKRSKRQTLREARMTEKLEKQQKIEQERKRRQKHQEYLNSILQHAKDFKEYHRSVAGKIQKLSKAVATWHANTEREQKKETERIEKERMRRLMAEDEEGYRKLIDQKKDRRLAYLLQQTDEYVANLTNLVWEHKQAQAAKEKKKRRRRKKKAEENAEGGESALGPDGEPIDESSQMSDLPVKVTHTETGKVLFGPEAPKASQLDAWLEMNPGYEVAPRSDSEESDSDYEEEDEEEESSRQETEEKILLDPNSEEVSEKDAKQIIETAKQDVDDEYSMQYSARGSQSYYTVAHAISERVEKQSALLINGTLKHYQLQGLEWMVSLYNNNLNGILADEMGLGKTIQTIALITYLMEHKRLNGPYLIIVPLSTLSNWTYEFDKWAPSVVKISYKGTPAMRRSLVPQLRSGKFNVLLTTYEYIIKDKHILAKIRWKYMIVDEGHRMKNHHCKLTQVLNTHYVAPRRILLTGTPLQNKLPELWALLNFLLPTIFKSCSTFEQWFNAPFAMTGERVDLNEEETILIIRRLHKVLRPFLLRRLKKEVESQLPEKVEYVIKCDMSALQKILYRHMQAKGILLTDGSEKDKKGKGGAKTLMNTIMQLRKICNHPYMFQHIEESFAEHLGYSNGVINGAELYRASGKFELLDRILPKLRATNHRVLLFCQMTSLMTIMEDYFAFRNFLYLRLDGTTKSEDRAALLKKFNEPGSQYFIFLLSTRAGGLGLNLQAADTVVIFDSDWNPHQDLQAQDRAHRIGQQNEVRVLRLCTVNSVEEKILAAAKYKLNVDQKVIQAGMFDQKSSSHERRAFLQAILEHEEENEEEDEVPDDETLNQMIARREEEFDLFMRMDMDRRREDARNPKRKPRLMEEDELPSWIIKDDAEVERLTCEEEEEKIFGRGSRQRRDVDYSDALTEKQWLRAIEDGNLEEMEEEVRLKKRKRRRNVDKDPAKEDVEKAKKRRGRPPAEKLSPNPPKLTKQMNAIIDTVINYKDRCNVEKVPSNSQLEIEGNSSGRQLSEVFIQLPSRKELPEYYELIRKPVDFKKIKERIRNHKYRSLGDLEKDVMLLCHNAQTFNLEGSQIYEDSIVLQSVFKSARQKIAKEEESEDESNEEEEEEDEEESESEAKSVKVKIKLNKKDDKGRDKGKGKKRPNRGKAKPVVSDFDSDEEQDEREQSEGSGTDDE

BRG1, sequence (P51532 whole entry, the tested form may be a part): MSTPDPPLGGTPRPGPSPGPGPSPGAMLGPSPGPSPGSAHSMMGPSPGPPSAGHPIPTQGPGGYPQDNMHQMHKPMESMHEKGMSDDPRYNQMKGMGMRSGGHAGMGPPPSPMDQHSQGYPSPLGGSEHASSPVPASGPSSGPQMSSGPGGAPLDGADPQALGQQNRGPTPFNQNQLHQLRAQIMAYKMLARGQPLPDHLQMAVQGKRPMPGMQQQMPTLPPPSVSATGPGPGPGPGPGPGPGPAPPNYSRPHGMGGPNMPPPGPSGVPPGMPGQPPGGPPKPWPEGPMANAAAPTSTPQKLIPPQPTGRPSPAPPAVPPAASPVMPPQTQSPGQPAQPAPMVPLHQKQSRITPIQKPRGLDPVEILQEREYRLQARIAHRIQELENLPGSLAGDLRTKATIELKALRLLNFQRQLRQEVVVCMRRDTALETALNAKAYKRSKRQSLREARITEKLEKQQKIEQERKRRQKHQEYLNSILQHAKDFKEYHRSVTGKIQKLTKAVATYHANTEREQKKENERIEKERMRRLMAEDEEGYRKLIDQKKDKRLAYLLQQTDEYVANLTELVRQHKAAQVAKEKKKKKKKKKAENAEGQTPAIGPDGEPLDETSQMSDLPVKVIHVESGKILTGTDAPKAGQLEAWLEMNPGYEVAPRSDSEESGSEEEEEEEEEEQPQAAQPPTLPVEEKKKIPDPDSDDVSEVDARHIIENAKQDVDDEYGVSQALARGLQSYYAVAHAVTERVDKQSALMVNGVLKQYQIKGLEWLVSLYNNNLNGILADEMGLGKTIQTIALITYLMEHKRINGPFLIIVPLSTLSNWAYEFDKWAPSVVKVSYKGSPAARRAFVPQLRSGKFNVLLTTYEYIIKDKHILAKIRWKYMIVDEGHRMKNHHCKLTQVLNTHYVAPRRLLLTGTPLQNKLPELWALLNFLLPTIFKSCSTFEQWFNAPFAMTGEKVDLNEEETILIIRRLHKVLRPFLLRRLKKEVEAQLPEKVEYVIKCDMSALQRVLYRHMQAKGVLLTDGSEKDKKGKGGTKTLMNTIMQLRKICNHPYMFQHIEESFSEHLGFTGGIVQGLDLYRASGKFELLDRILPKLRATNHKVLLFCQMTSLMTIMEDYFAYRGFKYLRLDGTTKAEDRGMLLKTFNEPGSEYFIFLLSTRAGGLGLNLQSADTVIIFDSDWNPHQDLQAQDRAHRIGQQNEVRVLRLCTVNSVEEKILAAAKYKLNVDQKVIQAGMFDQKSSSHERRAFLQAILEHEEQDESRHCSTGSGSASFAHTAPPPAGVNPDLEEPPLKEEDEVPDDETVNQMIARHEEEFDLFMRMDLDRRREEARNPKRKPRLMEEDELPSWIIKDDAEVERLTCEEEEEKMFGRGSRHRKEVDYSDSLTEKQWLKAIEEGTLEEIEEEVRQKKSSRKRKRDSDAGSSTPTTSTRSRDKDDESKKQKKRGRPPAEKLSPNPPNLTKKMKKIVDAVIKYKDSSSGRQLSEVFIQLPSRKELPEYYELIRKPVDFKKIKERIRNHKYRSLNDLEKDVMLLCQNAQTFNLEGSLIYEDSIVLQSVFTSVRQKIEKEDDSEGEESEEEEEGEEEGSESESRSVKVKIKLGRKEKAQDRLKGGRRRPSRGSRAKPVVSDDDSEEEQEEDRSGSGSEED

B1: DPF2-CT1 (CT1 peptide of DPF2, amino acid residues 1 to 84) (peptide)
peptide: MAAVVENVVKLLGEQYYKDAMEQCHNYNARLCAERSVRLPFLDSQTGVAQSNCYIWMEKRHRGPGLASGQLYSYPARRWRKKRR
notes: One of a series of truncation mutants of DPF2
BRG1
  binding result: binds
Brm
  binding result: binds
